Measured values taken from article doi:10.1101/2022.11.09.515855.
Read-outs that look alike come from different tables or passages of the source.

Columns and labels:
[1] = molecular target: T1, Gac (C-terminal domain of GyrA, recombinant) (Borrelia burgdorferi B31) (UniProt O51396); assay: competition
T1 sequence: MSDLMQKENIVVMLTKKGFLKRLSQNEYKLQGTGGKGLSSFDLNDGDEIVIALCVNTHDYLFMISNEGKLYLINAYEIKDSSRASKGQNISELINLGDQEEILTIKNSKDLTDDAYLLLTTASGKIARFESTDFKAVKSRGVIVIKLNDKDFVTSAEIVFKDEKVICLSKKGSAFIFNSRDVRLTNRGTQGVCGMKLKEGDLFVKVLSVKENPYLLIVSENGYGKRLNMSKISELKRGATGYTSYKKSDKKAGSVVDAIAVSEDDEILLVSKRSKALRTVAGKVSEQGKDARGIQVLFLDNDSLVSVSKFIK

[2] = molecular target: T1, Gac (C-terminal domain of GyrA, recombinant) (Borrelia burgdorferi B31); assay: competition; remark: listed apart in the source

| Substance | binding signal (fold reduction of shift) [1] | binding signal (fold reduction of shift) [2] | binding signal (fold change of shift) [1] |
| --- | --- | --- | --- |
| B31 ospC operator/promoter unlabeled | 2.6 |  |  |
| Ip89 ospC operator/promoter unlabeled | 2 | > 8 |  |
| empty pCR2.1 amplicon |  |  | < 1.3 |
